Assay results as given in patent US20080081903A1, “METHOD FOR SCREENING TRANSCRIPTIONAL COREGULATORY PROTEINS OF TRANSCRIPTION FACTORS, AND ANDROGEN RECEPTOR TRANSCRIPTIONAL COREGULATORY PROTEINS AS TARGETS FOR ANDROGEN RECEPTOR-DEPENDENT DISEASES” (NEW YORK UNIVERSITY, priority 2001, published 2008).

What was measured:
[1] = target: T1, androgen receptor (AR) N-terminus (18-500) (Rattus norvegicus, UniProt P15207); test: Modified yeast two-hybrid, qualitative plate beta-galactosidase assay; assay type: binding
T1 construct: receptor residues 18 through 500 (using the rat androgen receptor number scheme); expressed in transfected cells; host or cells: Saccharomyces cerevisiae EGY188
T1 sequence (P15207 18-500): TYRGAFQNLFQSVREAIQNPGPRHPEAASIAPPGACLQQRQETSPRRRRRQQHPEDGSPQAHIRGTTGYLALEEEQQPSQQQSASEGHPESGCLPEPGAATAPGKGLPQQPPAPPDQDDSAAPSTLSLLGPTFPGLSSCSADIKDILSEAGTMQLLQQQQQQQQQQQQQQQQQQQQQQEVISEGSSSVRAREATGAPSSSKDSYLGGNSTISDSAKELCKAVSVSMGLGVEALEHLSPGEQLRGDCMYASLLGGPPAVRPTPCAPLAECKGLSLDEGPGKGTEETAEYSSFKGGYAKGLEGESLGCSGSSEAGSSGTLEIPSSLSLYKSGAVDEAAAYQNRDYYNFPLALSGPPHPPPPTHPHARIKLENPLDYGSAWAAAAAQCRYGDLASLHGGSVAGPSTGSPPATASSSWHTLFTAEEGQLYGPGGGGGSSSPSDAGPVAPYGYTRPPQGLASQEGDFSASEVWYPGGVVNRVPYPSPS
Source text: (§1) The modified yeast two hybrid assay is described in Hittelman et al., 1999. EGY188 was transformed by the lithium acetate method with (i) pJG4-5:AR18-500, (ii) pEG202:LNCaP cell cDNA library and (iii) pJK103, a β-galactosidase reporter gene with a single LexA operator. Potential interacting proteins were selected by plating the cDNA library expressing transformants onto galactose plates lacking leucine and containing X-gal.
To analyze the specificity of ART interaction, the capacity of the strongest androgen receptor N-terminus-interacting factors to associate with a panel of transcriptional regulatory proteins in the modified yeast two-hybrid assay was examined. ART-5, ART-27, and ART-37 were tested for interaction with Sp1A (Sp183-262), Sp1B (Sp1263-524) the cyclic AMP response element binding protein (CREB3-296), TBP-associated factor 130 (TAFII130270-700), the glucocorticoid receptor AF1 (GR107-237), and the steroid receptor coactivator-1 (SRC-1374-800).
The strength of interaction was determined by a qualitative plate beta-galactosidase assay after a 24 hour incubation on galactose X-gal plates at 301 C.
ART-27 derivatives containing amino acids 1-45, 1-67, 1-127, 46-157, 68-157, 127-157, 1-157, and 1-45/127-157 were expressed as fusion proteins with LexA. These derivatives were tested for their ability to interact with the androgen receptor N-terminus (AR18-500). The strength of interaction was determined by a qualitative plate beta-galactosidase assay after a 24 hour incubation on galactose X-gal plates at 301 C.

[2] = target: T2, androgen receptor ligand-binding domain (579-901) (Rattus norvegicus, UniProt P15207); test: Modified yeast two-hybrid specificity panel; settings: absence or presence of hormone
T2 construct: expressed in transfected cells; host or cells: yeast (modified two-hybrid assay)
T2 sequence (P15207 579-901): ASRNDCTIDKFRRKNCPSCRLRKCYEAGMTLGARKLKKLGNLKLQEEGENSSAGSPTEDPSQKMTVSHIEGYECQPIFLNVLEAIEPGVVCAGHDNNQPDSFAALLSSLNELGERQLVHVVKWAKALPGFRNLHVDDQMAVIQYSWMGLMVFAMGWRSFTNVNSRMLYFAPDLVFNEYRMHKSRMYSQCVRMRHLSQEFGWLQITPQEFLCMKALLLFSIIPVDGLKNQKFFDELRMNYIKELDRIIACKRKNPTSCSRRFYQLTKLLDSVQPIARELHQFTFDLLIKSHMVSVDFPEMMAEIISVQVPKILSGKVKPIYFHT

[3] = target: T3, androgen receptor N-terminus (AR18-500) (Rattus norvegicus, UniProt P15207); test: Modified yeast two-hybrid, quantitative liquid beta-galactosidase assay; assay type: binding; settings: LexA-ART fusions vs AR18-500; twelve hour incubation in galactose-containing media
T3 construct: receptor residues 18 through 500 (using the rat androgen receptor number scheme); expressed in transfected cells; host or cells: Saccharomyces cerevisiae EGY188
T3 sequence (P15207 18-500): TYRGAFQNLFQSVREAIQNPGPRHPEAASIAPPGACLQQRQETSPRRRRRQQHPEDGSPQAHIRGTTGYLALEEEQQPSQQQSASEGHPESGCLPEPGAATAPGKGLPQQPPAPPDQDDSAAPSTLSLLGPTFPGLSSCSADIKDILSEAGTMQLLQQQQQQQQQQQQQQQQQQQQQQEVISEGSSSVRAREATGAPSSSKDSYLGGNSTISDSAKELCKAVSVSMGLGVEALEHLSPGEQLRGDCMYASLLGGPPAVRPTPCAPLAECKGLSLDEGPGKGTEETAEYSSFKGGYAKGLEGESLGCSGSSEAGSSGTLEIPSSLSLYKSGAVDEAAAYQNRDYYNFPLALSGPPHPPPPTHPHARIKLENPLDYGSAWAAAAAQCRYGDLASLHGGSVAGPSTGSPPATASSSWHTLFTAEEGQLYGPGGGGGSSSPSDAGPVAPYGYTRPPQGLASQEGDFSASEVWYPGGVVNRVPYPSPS
Protocol: as §1
Yeast were grown in selective liquid media containing 2% glucose for approximately 12 hours, pelleted, washed once with sterile H2O, normalized according to cell number and resuspended to an optical density (OD600) of 0.15 in 2% galactose/1% raffinose. β-galactosidase assays were performed 12 hours later as described previously (Garabedian et al., 1992).
Out of approximately one million library transformants, eight clones were isolated that interact with the androgen receptor N-terminus. There protein factors were termed ARTs, for Androgen Receptor Trapped, by the present inventors. The eight ART clones were sequenced and were subjected to a database search using the BLAST program. A quantitative liquid beta-galactosidase assay was used to measure the relative strength of interaction between the androgen receptor N-terminus and the ARTs using the yeast two-hybrid system. The levels of expression of the ARTs in yeast were similar, as determined by immunoblotting using an antibody to the LexA DNA-binding domain that is common to all of the ARTs.
ARTs expressed as fusion proteins with the LexA DNA binding domain were analyzed for their ability to interact with AR18-500. The relative strength of interaction was determined by a quantitative liquid beta-galactosidase assay after a twelve hour incubation in galactose-containing media at 30EC. The LexA vector alone gives 1 unit of activity.

B1: ART-5: Androgen Receptor Trapped protein, SEQ ID NO:4, unknown function, represented in EST database (protein)
chain: MHNPDGSASPTADPGSELQTLGQAARRPPPPRAGHDAPRRTRPSARKPLSCFSRRPMPTREPPKTRGSRGHLHTHPPGPGPPLQGLAPRGLKTSAPRPPCQPQPGPHKAKTKKIVFEDELLSQALLGAKKPIGAIPKGHKPRPHPVPDYELKYPPVSSERERSRYVAVFQDQYGEFLELQHEVGCAQAKLRQLEALLSSLPPPQSQKEAQVAARVWREFEMKRMDPGFLDKQARCHYLKGKLRHLKTQIQKFDDQGDSEGSVYF
modifications: Human
Question: Which results are given for B1?
Answer: interaction with androgen receptor N-terminus ([1]; 24 hour incubation on galactose X-gal plates): interacts exclusively; specificity of interaction among panel of transcriptional regulatory factors ([1]; AR N-terminus, AR LBD, Sp1A, Sp1B, CREB, TAFII130, GR AF1, SRC-1): interacts rather specifically; interaction with androgen receptor ligand binding domain [2]: No interaction; relative strength of interaction with androgen receptor N-terminus [3]: strongest
